According to IntAct's records for PubMed 17399790:

B1: Complement factor H (Homo sapiens), P08603-1 (parent)
chain: MRLLAKIICLMLWAICVAEDCNELPPRRNTEILTGSWSDQTYPEGTQAIYKCRPGYRSLGNVIMVCRKGEWVALNPLRKCQKRPCGHPGDTPFGTFTLTGGNVFEYGVKAVYTCNEGYQLLGEINYRECDTDGWTNDIPICEVVKCLPVTAPENGKIVSSAMEPDREYHFGQAVRFVCNSGYKIEGDEEMHCSDDGFWSKEKPKCVEISCKSPDVINGSPISQKIIYKENERFQYKCNMGYEYSERGDAVCTESGWRPLPSCEEKSCDNPYIPNGDYSPLRIKHRTGDEITYQCRNGFYPATRGNTAKCTSTGWIPAPRCTLKPCDYPDIKHGGLYHENMRRPYFPVAVGKYYSYYCDEHFETPSGSYWDHIHCTQDGWSPAVPCLRKCYFPYLENGYNQNYGRKFVQGKSIDVACHPGYALPKAQTTVTCMENGWSPTPRCIRVKTCSKSSIDIENGFISESQYTYALKEKAKYQCKLGYVTADGETSGSITCGKDGWSAQPTCIKSCDIPVFMNARTKNDFTWFKLNDTLDYECHDGYESNTGSTTGSIVCGYNGWSDLPICYERECELPKIDVHLVPDRKKDQYKVGEVLKFSCKPGFTIVGPNSVQCYHFGLSPDLPICKEQVQSCGPPPELLNGNVKEKTKEEYGHSEVVEYYCNPRFLMKGPNKIQCVDGEWTTLPVCIVEESTCGDIPELEHGWAQLSSPPYYYGDSVEFNCSESFTMIGHRSITCIHGVWTQLPQCVAIDKLKKCKSSNLIILEEHLKNKKEFDHNSNIRYRCRGKEGWIHTVCINGRWDPEVNCSMAQIQLCPPPPQIPNSHNMTTTLNYRDGEKVSVLCQENYLIQEGEEITCKDGRWQSIPLCVEKIPCSQPPQIEHGTINSSRSSQESYAHGTKLSYTCEGGFRISEENETTCYMGKWSSPPQCEGLPCKSPPEISHGVVAHMSDSYQYGEEVTYKCFEGFGIDGPAIAKCLGEKWSHPPSCIKTDCLSLPSFENAIPMGEKKDVYKAGEQVTYTCATYYKMDGASNVTCINSRWTGRPTCRDTSCVNPPTVQNAYIVSRQMSKYPSGERVRYQCRSPYEMFGDEEVMCLNGNWTEPPQCKDSTGKCGPPPPIDNGDITSFPLSVYAPASSVEYQCQNLYQLEGNKRITCRNGQWSEPPKCLHPCVISREIMENYNIALRWTAKQKLYSRTGESVEFVCKRGYRLSSRSHTLRTTCWDGKLEYPTCAKR
partner: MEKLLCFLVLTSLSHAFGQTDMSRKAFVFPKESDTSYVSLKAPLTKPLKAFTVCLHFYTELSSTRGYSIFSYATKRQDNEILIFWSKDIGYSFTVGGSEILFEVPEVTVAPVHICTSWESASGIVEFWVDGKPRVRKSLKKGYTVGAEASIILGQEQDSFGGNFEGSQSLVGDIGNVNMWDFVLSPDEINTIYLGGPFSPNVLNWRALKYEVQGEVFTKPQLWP
B2: Complement factor H (Homo sapiens), P08603-2 (parent)
chain: MRLLAKIICLMLWAICVAEDCNELPPRRNTEILTGSWSDQTYPEGTQAIYKCRPGYRSLGNVIMVCRKGEWVALNPLRKCQKRPCGHPGDTPFGTFTLTGGNVFEYGVKAVYTCNEGYQLLGEINYRECDTDGWTNDIPICEVVKCLPVTAPENGKIVSSAMEPDREYHFGQAVRFVCNSGYKIEGDEEMHCSDDGFWSKEKPKCVEISCKSPDVINGSPISQKIIYKENERFQYKCNMGYEYSERGDAVCTESGWRPLPSCEEKSCDNPYIPNGDYSPLRIKHRTGDEITYQCRNGFYPATRGNTAKCTSTGWIPAPRCTLKPCDYPDIKHGGLYHENMRRPYFPVAVGKYYSYYCDEHFETPSGSYWDHIHCTQDGWSPAVPCLRKCYFPYLENGYNQNYGRKFVQGKSIDVACHPGYALPKAQTTVTCMENGWSPTPRCIRVSFTL
partner: B1 partner

Variants of: B1
Settings: with crp_human CRP

effect of a mutation on the interaction | Variant
decreasing interaction strength | Y402H

Variants of: B2
Settings: with crp_human CRP

effect of a mutation on the interaction | Variant
decreasing interaction strength | Y402H
